Test results: patent US20240261333A1 (published 2024)

B1: N-terminal FLAG tagged B3GNT2 (enzyme, human, UniProt Q9NY97 1-397, looked up)
chain: MSVGRRRIKLLGILMMANVFIYFIMEVSKSSSQEKNGKGEVIIPKEKFWKISTPPEAYWNREQEKLNRQYNPILSMLTNQTGEAGRLSNISHLNYCEPDLRVTSVVTGFNNLPDRFKDFLLYLRCRNYSLLIDQPDKCAKKPFLLLAIKSLTPHFARRQAIRESWGQESNAGNQTVVRVFLLGQTPPEDNHPDLSDMLKFESEKHQDILMWNYRDTFFNLSLKEVLFLRWVSTSCPDTEFVFKGDDDVFVNTHHILNYLNSLSKTKAKDLFIGDVIHNAGPHRDKKLKYYIPEVVYSGLYPPYAGGGGFLYSGHLALRLYHITDQVHLYPIDDVYTGMCLQKLGLVPEKHKGFRTFDIEEKNKNNICSYVDLMLVHSRKPQEMIDIWSQLQSAHLKC
notes: FLAG-tagged ORF overexpressed in cells; pulled down from lysate with mouse anti-FLAG; also called N-FLAG B3GNT2; N-term FLAG; not shown: N-terminal FLAG tag
B2: N-terminal FLAG tagged B3GNT2 (enzyme, human, UniProt Q9NY97 1-397, looked up)
chain: B1 chain
notes: FLAG-tagged ORF overexpressed in A375 cells; pulled down from the lysate with mouse anti-FLAG; also called N-FLAG B3GNT2; N-term FLAG; not shown: N-terminal FLAG tag

Legend:
Assay in all cases: co-IP with anti-FLAG, N-FLAG B3GNT2, mass spectrometry
LGALS7B = molecular target: T1, LGALS7B (human, UniProt P47929 1-136)
T1 construct: also called NP_001035972.1

HNRNPM = molecular target: T2, HNRNPM (human, UniProt P52272 2-730)
T2 construct: also called NP_005959.2 (+1)
T2 sequence (looked up): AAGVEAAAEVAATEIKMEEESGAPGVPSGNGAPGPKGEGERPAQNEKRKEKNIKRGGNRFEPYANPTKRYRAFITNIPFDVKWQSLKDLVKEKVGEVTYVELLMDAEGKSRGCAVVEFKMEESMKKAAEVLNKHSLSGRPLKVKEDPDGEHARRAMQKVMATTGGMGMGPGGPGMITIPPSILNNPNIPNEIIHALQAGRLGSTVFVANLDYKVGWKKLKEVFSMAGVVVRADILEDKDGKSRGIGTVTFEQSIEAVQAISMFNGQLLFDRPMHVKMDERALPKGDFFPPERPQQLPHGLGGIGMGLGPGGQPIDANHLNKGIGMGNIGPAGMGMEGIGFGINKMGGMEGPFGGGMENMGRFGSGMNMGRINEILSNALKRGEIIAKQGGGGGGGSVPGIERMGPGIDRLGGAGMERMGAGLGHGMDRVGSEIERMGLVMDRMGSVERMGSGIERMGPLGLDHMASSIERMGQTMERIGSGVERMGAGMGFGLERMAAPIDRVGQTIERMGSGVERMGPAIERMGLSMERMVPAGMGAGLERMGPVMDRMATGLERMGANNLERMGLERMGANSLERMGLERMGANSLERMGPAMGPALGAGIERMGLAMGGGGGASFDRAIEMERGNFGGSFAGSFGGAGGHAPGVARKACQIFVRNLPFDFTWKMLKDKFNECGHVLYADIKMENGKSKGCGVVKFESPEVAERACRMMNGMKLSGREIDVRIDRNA

LAMC1 = molecular target: T3, LAMC1 (human, UniProt P11047 34-1609)
T3 construct: also called NP_002284.3

P4HA2 = molecular target: T4, P4HA2 (human, UniProt O15460 22-535, limits assumed)
T4 construct: also called NP_001352606.1 (+3)

RBM14 = molecular target: T5, RBM14 (human, UniProt Q96PK6 1-669)
T5 construct: also called XP_006319.1
T5 sequence (looked up): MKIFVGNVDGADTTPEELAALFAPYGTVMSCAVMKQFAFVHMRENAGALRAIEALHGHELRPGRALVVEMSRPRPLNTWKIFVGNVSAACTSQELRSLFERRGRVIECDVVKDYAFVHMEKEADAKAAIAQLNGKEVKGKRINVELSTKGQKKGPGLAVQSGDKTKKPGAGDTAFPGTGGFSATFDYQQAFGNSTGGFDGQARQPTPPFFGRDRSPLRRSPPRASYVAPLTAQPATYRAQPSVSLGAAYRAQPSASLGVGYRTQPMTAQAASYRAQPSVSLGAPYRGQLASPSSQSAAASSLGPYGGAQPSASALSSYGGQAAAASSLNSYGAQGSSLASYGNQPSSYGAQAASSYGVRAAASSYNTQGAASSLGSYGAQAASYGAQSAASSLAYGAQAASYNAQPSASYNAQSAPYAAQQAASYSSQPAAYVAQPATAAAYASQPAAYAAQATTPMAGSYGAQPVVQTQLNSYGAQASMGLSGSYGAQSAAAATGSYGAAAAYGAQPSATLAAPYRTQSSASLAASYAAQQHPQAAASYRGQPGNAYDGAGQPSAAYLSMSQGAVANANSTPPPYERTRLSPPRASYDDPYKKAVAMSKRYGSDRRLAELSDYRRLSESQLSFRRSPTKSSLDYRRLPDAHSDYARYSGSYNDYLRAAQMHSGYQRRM

RPL6 = RPL6 (human, UniProt Q02878 2-288)

T4 sequence (O15460 22-535 limits assumed): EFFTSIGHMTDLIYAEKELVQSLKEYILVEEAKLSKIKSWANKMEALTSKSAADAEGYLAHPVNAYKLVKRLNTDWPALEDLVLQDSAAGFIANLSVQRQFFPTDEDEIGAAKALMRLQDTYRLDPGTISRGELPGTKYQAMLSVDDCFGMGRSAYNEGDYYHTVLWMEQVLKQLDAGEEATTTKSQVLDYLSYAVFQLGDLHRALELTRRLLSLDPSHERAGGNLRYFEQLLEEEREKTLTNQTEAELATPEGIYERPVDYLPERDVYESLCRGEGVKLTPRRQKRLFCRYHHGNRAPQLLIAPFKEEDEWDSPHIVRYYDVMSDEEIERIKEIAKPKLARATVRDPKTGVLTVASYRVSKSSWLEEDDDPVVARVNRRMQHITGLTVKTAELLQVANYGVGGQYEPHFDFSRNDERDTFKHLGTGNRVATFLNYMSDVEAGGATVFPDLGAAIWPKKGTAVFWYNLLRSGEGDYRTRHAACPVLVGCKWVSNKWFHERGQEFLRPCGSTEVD
T3 sequence (P11047 34-1609 limits assumed): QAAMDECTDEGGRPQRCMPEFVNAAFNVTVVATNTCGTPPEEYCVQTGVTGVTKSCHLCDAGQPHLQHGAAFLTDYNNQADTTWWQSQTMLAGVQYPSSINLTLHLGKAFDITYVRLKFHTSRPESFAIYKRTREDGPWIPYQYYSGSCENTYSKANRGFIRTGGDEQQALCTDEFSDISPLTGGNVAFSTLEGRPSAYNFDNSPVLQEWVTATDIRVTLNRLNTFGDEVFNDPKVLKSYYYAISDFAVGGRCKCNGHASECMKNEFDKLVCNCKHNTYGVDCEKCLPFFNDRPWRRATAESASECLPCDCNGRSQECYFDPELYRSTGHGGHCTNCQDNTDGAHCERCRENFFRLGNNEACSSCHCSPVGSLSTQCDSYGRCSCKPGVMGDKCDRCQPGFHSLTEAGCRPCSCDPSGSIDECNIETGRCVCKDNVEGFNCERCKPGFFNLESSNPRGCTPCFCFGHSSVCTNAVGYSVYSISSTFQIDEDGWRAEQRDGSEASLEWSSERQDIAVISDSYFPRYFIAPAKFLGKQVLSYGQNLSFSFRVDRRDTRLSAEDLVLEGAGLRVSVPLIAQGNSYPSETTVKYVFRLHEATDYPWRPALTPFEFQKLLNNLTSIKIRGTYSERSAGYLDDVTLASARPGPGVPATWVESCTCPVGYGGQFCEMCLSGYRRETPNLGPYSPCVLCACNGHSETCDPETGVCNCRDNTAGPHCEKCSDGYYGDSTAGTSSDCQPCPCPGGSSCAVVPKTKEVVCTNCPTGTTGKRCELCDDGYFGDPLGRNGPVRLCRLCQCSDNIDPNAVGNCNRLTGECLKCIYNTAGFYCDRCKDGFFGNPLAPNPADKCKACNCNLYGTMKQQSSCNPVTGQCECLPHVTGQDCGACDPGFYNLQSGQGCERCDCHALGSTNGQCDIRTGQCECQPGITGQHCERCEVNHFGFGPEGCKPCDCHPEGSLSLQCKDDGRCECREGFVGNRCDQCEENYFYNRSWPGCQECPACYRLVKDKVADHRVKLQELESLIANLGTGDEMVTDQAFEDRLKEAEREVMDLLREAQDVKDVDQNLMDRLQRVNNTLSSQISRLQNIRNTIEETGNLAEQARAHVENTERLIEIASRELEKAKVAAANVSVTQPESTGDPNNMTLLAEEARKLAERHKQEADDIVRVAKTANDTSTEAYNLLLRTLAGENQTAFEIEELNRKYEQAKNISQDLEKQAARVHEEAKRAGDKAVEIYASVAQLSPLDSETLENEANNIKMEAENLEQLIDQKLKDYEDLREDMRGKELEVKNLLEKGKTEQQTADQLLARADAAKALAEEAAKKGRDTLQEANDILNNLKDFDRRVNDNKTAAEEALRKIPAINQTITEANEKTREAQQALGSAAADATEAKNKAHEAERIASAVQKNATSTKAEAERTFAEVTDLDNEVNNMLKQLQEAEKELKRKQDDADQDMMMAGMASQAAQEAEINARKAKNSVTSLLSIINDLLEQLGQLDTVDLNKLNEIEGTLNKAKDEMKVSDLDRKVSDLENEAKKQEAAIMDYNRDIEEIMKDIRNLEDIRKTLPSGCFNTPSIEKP
T1 sequence (P47929 whole entry): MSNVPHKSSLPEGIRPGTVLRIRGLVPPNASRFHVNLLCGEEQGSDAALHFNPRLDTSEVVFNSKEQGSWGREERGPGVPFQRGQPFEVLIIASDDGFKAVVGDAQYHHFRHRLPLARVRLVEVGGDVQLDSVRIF

Binder | co-IP mass spectrometry count (LGALS7B) | co-IP mass spectrometry count (HNRNPM) | co-IP/MS count, N-term FLAG (LAMC1) | co-IP/MS count, N-term FLAG (P4HA2) | co-IP/MS count, N-term FLAG (RBM14) | co-IP/MS count, N-term FLAG (RPL6)
B1 | 7 | 6 |  |  |  | 
B2 |  |  | 0 | 0 | 3 | 10
